Assay results reported in article PMC8153620, “A Novel, Easy Assay Method for Human Cysteine Sulfinic Acid Decarboxylase” (Life, 2021).

T1: human cysteine sulfinic acid decarboxylase (CSAD) (Homo sapiens, UniProt Q9Y600)
T1 construct: His6 and TEV site), tag kept (cleavage not mentioned); plasmid pNIC28-Bsa4; E. coli Rosetta(DE3); homodimer in crystal (PDB 2jis, solved by SGC)
T1 sequence (Q9Y600 1-493): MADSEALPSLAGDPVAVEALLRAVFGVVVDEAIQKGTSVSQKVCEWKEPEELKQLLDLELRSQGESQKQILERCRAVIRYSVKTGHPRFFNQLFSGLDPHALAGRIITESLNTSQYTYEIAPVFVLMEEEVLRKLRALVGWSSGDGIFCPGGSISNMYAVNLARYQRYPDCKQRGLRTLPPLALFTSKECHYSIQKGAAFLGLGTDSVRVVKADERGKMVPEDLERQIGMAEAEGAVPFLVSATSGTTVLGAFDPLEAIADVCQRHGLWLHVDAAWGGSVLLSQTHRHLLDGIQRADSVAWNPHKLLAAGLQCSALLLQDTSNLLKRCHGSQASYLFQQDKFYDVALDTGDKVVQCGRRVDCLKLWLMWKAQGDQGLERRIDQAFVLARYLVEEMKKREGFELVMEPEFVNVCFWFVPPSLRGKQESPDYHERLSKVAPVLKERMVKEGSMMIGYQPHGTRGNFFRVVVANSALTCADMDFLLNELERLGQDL


Assays:
[1] = biological target: T1, human cysteine sulfinic acid decarboxylase (CSAD); assay: restoration of catalytic activity by equimolar PLP; absorption spectrum after dialysis; format: biochemical; details: covalent (Schiff base to Lys305 in PDB 2jis, not solved here); spectrum in 20 mM NaHEPES pH 7.5, 300 mM NaCl, 0.2 mM DTT, 5% glycerol
[2] = substrate: N[C@@H](CS(=O)O)C(=O)O; assay: purified protein; format: biochemical, Homo sapiens; details: 20 mM potassium phosphate pH 7.2, 0.2 mM DTT, 0.1 mM EDTA, 0.06 mM PLP, about 20 °C (room temperature), 0.33 μM CSAD, CSA 0.06–1 mM

Row | Molecule | restoration of catalytic activity by equimolar PLP; absorption spectrum after di [1] | Km [2] [µM] | kcat [2] [s⁻¹]
1 | Cc1ncc(COP(=O)(O)O)c(C=O)c1O [PLP, pyridoxal-5′-phosphate] | addition of exogenous PLP—in equimolar concentration with respect to the protein—restored the holo-form |  | 
2 | human cysteine sulfinic acid decarboxylase (CSAD) (Homo sapiens) (protein, His6 and TEV site), tag kept (cleavage not mentioned); plasmid pNIC28-Bsa4; E. coli Rosetta(DE3); homodimer in crystal (PDB 2jis, solved by SGC)) MADSEALPSLAGDPVAVEALLRAVFGVVVDEAIQKGTSVSQKVCEWKEPEELKQLLDLELRSQGESQKQILERCRAVIRYSVKTGHPRFFNQLFSGLDPHALAGRIITESLNTSQYTYEIAPVFVLMEEEVLRKLRALVGWSSGDGIFCPGGSISNMYAVNLARYQRYPDCKQRGLRTLPPLALFTSKECHYSIQKGAAFLGLGTDSVRVVKADERGKMVPEDLERQIGMAEAEGAVPFLVSATSGTTVLGAFDPLEAIADVCQRHGLWLHVDAAWGGSVLLSQTHRHLLDGIQRADSVAWNPHKLLAAGLQCSALLLQDTSNLLKRCHGSQASYLFQQDKFYDVALDTGDKVVQCGRRVDCLKLWLMWKAQGDQGLERRIDQAFVLARYLVEEMKKREGFELVMEPEFVNVCFWFVPPSLRGKQESPDYHERLSKVAPVLKERMVKEGSMMIGYQPHGTRGNFFRVVVANSALTCADMDFLLNELERLGQDL |  | 200 ± 20 | 5.6 ± 0.2
